Consider seven molecules from paper PMC6168553 (Nature Communications, 2018).

Changes are numbered by the printed parent chain. Names may count otherwise.

Data set [1] concerns the molecule itself. In words: negative-stain EM; void-volume fraction of size-exclusion chromatography after cleavage of the MBP tag by TEV. On the technique in general: Size exclusion chromatography separates by hydrodynamic size, large species first.
Data set [2] deals with T1, NOD2ΔLRR (residues 1-619), MBP tag cleaved (human, UniProt Q9HC29 1-619).
T1 construct: NOD2 (nucleotide oligomerization domain 2), human, CARDS and NOD without the LRR domain, residues 1-619; A less aggregated SEC fraction was used; the protein forms soluble aggregates; also called MBP-NOD2ΔLRR before cleavage; source: sf21 insect cells (baculovirus), purified (amylose resin, TEV cleavage, size exclusion chromatography); not shown: MBP, N-terminal, cleaved
T1 sequence (Q9HC29 1-619, stated change not applied): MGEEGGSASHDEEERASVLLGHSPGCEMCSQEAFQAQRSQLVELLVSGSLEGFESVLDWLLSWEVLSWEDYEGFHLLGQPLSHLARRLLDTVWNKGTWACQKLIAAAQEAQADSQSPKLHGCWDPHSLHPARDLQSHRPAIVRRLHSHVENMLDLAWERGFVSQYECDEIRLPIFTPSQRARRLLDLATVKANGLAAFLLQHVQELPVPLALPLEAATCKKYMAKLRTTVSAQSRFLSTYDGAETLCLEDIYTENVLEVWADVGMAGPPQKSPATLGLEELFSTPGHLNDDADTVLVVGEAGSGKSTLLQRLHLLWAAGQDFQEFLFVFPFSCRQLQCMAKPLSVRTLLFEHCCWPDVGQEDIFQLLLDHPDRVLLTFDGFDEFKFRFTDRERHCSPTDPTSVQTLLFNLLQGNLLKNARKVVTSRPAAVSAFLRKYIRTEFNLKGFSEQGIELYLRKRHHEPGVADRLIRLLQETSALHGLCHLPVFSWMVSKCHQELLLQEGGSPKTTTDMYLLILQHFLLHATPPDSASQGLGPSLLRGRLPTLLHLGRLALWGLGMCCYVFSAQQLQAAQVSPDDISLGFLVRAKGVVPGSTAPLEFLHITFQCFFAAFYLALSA
Nature of the data set: immuno-gold labelling with negative-stain EM; purified NOD2ΔLRR mixed with a 50-fold excess of MBP-RIP2CARD, polymerization induced by TEV; rabbit anti-NOD2 and gold-conjugated anti-rabbit. To be noted: both partners purified.

Data set [3] deals with the molecule itself. Nature of the data set: cryo-EM structure; helical reconstruction of NOD2CARDS^s-RIP2CARD filaments, filament ends left out; 3.94 Å.
Data set [4] deals with the molecule itself. Nature of the data set: negative-stain EM; amylose eluate (with co-purified NOD2CARDS^s) at 2.5 mg ml^−1, polymerization stimulated by proteases for 4 h at room temperature.

B1: RIP2CARD (residues 435-540), MBP tag cleaved (domain or fragment, human, UniProt O43353 435-540, looked up)
chain: IAQQWIQSKREDIVNQMTEACLNQSLDALLSRDLIMKEDYELVSTKPTRTSKVRQLLDTTDIQGEEFAKVIVQKLKDNKQMGLQPYPEILVVSRSPSLNLLQNKSM
notes: RIP2 CARD domain, human, residues 435-540; Isotope-labelled for solid-state NMR; also called RIP2CARD VV; RIP2CARD filament; source: E. coli Rosetta 2 (BL21 star for NMR), purified (amylose resin), MBP cleaved by TEV; not shown: MBP, N-terminal, cleaved
Regarding B1, the binding result in data set [1] and in data set [2] was “binds” throughout.

B2: RIP2CARD (residues 431-540), wild type, HIS-MBP tag cleaved (domain or fragment, human, UniProt O43353 431-540, looked up)
chain: LQPGIAQQWIQSKREDIVNQMTEACLNQSLDALLSRDLIMKEDYELVSTKPTRTSKVRQLLDTTDIQGEEFAKVIVQKLKDNKQMGLQPYPEILVVSRSPSLNLLQNKSM
notes: RIP2 CARD domain, human, residues 431-540; The atomic model of the filament comprises residues P433 to Q518; also called RIP2CARD filament; NOD2CARDS^s-WT; source: E. coli Rosetta 2, purified (amylose resin, Superose6), HIS-MBP cleaved by P3C, Ni-NTA, dialysis; not shown: His, N-terminal, cleaved; MBP, N-terminal, cleaved
Take B2: the binding result in data set [3] is “binds”.

B3: RIP2CARD (431-540) T452A, HIS-MBP tag cleaved (domain or fragment, human, UniProt O43353 431-540, looked up)
chain: B2 chain with T22A
notes: RIP2 CARD domain, human, residues 431-540; source: E. coli Rosetta 2, co-purified with NOD2CARDS^s on amylose resin, tags cleaved by proteases; not shown: His, N-terminal, cleaved; MBP, N-terminal, cleaved
As for B3, the binding result in data set [4] is recorded as “binds”.

B4: RIP2CARD (431-540) T452K, HIS-MBP tag cleaved (domain or fragment, human, UniProt O43353 431-540, looked up)
chain: B2 chain with T22K
notes: RIP2 CARD domain, human, residues 431-540; also called RIP2CARD-T452K; NOD2CARDS^s-T452K; source: E. coli Rosetta 2, co-purified with NOD2CARDS^s on amylose resin, tags cleaved by proteases; not shown: His, N-terminal, cleaved; MBP, N-terminal, cleaved
As for B4, the binding result in data set [4] is on record as “binds”.

B5: RIP2CARD (431-540) E453A, HIS-MBP tag cleaved (domain or fragment, human, UniProt O43353 431-540, looked up)
chain: B2 chain with E23A
notes: as for B3
On to B5, for which the binding result in data set [4] was “binds”.

B6: RIP2CARD (431-540) C455S, HIS-MBP tag cleaved (domain or fragment, human, UniProt O43353 431-540, looked up)
chain: B2 chain with C25S
notes: RIP2 CARD domain, human, residues 431-540; also called RIP2CARD-C455S; NOD2CARDS^s-C455S; source: E. coli Rosetta 2, co-purified with NOD2CARDS^s on amylose resin, tags cleaved by proteases; not shown: His, N-terminal, cleaved; MBP, N-terminal, cleaved
In the case of B6, the binding result in data set [4] is “binds”.

B7: RIP2CARD (431-540) C455A, HIS-MBP tag cleaved (domain or fragment, human, UniProt O43353 431-540, looked up)
chain: B2 chain with C25A
notes: as for B3
Take B7: the binding result in data set [4] was “binds”.
